Assay results taken from paper PMC11955550.

Key:
[1] = biological target: α-synuclein (αSyn) amyloid fibrils (UniProt P37840); experiment: co-sedimentation; αSyn fibrils 20 µM (monomer) with DNAJB1 8 µM in low-salt HD buffer (50 mM HEPES, 2 mM DTT, pH 7.50), 30 min at 30 °C; 17,000 g 30 min; pellet and supernatant on SDS-PAGE, densitometry
[2] = biological target: α-synuclein (αSyn) amyloid fibrils (UniProt P37840); experiment: co-sedimentation; αSyn fibrils 20 µM (monomer) with DNAJB1 8 µM in HKMD buffer (50 mM HEPES, 50 mM KCl, 5 mM MgCl2, 2 mM DTT, pH 7.50), 30 min at 30 °C; 17,000 g 30 min; pellet and supernatant on SDS-PAGE, densitometry

wild-type DNAJB1 (from UniProt P25685 1-340) (natural protein)
percent bound [1]: 80%
percent bound [2]: 40%
